Earlier results, collected in publication PMC10871162.
Read-outs that look alike come from different tables or passages of the source. Each block holds one substance with its values, some of them ahead of it.

Columns and labels:
[1] = target: TRTK-12 (CapZ peptide) (Homo sapiens) (UniProt P52907)
[2] = target: RyR peptide RyR peptide (Homo sapiens) (UniProt P21817)
RyR peptide = RyR peptide (UniProt P21817)
RIIβ peptide = RIIβ peptide (UniProt P31323)
[3] = target: nonmuscle myosin IIA mysIIA peptide (Homo sapiens) (UniProt P35579)
[4] = target: myosin IIA peptide (Homo sapiens) (UniProt P35579)
[5] = target: TRTK-12 (CapZ peptide) (Homo sapiens) (UniProt P52907); remark: listed apart in the source

Chain of UniProt P31323 (P31323 whole entry): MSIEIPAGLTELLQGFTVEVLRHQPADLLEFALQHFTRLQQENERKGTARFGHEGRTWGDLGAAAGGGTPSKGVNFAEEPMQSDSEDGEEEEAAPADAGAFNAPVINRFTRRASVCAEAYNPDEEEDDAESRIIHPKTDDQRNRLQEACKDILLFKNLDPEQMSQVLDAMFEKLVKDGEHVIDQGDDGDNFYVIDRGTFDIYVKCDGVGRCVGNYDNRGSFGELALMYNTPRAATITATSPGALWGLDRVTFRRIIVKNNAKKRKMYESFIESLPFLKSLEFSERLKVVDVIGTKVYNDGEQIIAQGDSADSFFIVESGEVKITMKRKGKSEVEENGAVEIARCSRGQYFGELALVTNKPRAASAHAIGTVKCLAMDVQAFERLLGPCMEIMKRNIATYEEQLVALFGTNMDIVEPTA

Kd [1]: 23 µM | Kd [2]: 8 µM | Kd (RyR peptide): 8 µM | Kd (RIIβ peptide): 2 µM
Substance: S100A1 (from UniProt P23297)

Kd [3]: < 0.001 µM | Kd [4]: < 0.001 µM
Substance: S100A4 (from UniProt P26447)

Kd [5]: 2.9 µM
Substance: S100B (from UniProt P04271)
